Laboratory results reported in publication doi:10.1101/2020.04.14.041046.

Biological target: actin filaments (rabbit skeletal muscle actin) (rabbit) (UniProt P68135)
Assay: co-sedimentation

Substance	stoichiometry N	Kd [nM]
Rng2CHD fused with GFP to its N-terminus via a 16-residue linker (GFP-Rng2CHD) (domain or fragment)	1	
calponin-homology actin binding domain of fission yeast IQGAP Rng2 (Rng2CHD) (domain or fragment)		920
